Experimental data from PMC3902948 (Nucleic Acids Research, 2013).

Biological target: Prp43-Strep (S. cerevisiae, UniProt P53131 1-767)
Assay: titration of the ATPase activity of Prp43

Prp43-Strep, sequence (P53131 whole entry): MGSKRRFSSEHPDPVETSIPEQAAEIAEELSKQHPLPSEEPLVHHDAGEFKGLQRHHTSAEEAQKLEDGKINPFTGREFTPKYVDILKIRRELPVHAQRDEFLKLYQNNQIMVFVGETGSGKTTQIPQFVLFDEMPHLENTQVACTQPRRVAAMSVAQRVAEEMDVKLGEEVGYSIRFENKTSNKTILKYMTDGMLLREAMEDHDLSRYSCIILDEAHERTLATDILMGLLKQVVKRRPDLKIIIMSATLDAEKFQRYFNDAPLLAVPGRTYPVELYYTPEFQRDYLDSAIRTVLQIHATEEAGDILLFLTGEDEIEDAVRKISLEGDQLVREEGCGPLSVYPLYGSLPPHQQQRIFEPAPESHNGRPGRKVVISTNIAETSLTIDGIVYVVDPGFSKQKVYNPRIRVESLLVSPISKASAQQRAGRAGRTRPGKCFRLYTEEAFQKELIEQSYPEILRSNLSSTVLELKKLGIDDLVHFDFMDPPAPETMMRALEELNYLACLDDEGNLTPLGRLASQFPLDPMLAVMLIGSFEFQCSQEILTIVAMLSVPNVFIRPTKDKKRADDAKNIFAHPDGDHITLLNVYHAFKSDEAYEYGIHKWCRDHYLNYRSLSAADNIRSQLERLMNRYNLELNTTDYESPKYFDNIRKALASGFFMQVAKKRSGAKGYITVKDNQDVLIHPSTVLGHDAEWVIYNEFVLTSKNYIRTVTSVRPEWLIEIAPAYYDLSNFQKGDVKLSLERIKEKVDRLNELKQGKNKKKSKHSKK

| Kd | Binder |
| --- | --- |
| 1490 ± 50 nM | Strep-Ntr1(1–120) (domain or fragment, S. cerevisiae, UniProt Q06411 1-120, looked up) MEDSDSNTDKKFFFKKRRIDSYNYSDEEDNNSSMNSDMTYTNDALKTSSGNAPTISKLTKTYGIGAKLLSSMGYVAGKGLGKDGSGITTPIETQSRPMHNAGLGMFSNTNSSNYHSENED |
| 2240 ± 110 nM | Ntr1(51–110) (domain or fragment, S. cerevisiae, UniProt Q06411 51-110, looked up) NAPTISKLTKTYGIGAKLLSSMGYVAGKGLGKDGSGITTPIETQSRPMHNAGLGMFSNTN |
